Assay results published in US20210011017A1.

How the values were obtained:
[1] = target: recombinant BoHV-1 gE CT-His polypeptide (Bovine herpesvirus type 1) (UniProt Q08101); assay: competitive ELISA on gE CT-His; serum, then HRP-MAb 2H8F3 (competitor); negative control reference
[2] = target: streptavidin (NEB, Cat #A00160) (UniProt P22629); assay: ELISA, streptavidin well without peptide, secondary antibody only
[3] = target: recombinant BoHV-1 gE CT-His polypeptide (Bovine herpesvirus type 1) (UniProt Q08101); assay: ELISA on coated gE CT-His, secondary antibody only (negative control)

Chain of UniProt P22629 (P22629 37-163 limits assumed): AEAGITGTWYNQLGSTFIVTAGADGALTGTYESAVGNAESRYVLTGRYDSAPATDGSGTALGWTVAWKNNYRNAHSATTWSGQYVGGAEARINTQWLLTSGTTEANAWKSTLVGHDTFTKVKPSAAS

**Q.** “inactivated, non-infected fetal calf serum (Atlas biologicals), negative control” was tested. Which % Inhibition [1] did it give?
**A.** Its % Inhibition is 0%.

**Q.** And the S/N Ratio [1]?
**A.** Its S/N Ratio is 1.

**Q.** Which results are given for “goat anti-mouse IgG [HRP] secondary antibody”?
**A.** O.D. 450 nm [2]: 0.055 O.D. 450 nm; O.D. 450 nm [3]: 0.057 O.D. 450 nm
